The values that follow come from paper PMC12013499.

Assay in all cases: EMSA
Holding throughout (settings): EMSA: 0.5 pmol 32P-tRNA, 0-4 uM enzyme, 20 C, 10 min, 18.5% glycerol added, 5% native PAGE; buffer and pH not given (as in cited refs); n = 3

In series [1] the test system is T1, AsuCCA (Ascaris suum).
T1 sequence: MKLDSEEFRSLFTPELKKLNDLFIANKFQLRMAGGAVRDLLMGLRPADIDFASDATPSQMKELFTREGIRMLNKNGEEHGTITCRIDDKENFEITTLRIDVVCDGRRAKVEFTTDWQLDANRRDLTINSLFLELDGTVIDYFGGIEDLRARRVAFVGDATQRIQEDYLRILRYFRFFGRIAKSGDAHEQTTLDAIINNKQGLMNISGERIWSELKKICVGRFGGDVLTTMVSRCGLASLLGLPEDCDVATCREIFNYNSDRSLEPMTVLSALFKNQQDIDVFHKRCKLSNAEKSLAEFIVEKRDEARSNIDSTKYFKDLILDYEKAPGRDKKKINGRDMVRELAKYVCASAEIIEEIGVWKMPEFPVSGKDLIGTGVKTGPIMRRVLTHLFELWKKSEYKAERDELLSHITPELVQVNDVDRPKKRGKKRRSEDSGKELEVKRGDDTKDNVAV

The subject of series [2] is T2, AsuCCA-Hsaβ (Ascaris suum / Homo sapiens chimera).
T2 sequence: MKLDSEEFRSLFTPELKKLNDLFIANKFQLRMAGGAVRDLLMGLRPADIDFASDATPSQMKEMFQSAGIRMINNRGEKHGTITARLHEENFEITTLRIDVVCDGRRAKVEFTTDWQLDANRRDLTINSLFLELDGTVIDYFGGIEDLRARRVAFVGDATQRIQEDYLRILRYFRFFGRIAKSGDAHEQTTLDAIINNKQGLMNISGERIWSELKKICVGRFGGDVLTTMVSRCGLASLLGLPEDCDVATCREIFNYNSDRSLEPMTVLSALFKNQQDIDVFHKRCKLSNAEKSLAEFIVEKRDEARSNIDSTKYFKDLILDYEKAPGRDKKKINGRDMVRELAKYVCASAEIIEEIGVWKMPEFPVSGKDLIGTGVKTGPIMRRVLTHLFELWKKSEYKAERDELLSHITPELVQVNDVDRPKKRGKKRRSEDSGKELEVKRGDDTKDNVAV

The test system of series [3] is T3, HsaCCA-AsuC40 (Homo sapiens / Ascaris suum chimera).
T3 sequence: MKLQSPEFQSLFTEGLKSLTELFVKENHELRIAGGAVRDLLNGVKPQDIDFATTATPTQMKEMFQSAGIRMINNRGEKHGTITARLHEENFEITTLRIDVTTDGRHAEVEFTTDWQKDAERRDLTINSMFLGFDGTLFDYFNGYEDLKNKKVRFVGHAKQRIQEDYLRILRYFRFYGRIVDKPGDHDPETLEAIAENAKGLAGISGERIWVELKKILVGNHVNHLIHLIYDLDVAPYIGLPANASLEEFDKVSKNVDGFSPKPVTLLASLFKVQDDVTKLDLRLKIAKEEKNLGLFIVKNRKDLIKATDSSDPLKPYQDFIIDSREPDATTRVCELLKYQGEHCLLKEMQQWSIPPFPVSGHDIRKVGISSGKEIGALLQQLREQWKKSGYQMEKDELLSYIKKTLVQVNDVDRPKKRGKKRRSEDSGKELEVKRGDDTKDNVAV

Series [4] relates to T4, RcuCCA (Romanomermis culicivorax).
T4 sequence: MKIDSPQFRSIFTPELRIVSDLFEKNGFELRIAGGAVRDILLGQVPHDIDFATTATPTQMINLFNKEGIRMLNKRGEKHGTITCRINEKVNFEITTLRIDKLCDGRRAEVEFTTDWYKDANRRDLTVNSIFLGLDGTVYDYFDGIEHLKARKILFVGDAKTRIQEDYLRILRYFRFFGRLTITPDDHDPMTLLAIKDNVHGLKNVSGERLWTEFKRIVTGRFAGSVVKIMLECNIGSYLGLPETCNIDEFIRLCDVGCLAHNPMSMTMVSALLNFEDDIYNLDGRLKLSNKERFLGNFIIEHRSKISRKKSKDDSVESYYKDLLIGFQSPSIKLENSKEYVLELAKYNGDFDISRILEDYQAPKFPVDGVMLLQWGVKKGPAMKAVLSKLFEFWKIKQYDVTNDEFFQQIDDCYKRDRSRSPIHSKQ

Series [5] concerns T5, AsuCCA ΔC40 delC-terminal 40 residues (Ascaris suum).
T5 sequence: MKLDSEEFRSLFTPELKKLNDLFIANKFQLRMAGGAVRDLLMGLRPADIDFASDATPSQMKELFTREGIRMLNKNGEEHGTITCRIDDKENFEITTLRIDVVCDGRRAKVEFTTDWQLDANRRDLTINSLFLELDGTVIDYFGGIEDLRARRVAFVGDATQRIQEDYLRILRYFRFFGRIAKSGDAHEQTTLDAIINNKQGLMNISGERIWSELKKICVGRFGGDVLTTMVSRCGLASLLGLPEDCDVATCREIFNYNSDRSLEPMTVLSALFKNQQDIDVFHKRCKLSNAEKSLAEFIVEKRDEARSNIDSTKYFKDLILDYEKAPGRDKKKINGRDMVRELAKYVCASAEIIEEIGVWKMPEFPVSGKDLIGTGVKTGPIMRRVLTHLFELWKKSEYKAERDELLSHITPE

For the substance Rcu mt-tRNAIle (armless), the Kd in series [1] is 1100 nM; in series [2] it was 300 nM; in series [3] it was 600 nM; in series [4], 1400 nM.

Consider Sce tRNAPhe (canonical), for which the Kd worked out at 1700 nM in series [5]; 500 nM in series [1]; 300 nM in series [2]; 700 nM in series [3]; 1600 nM in series [4].
